This series concerns iron co-factored superoxide dismutase (SodA) of M. tuberculosis/BCG, wild type, as produced by BCG.

As to “mutant SodA ΔE54 (also contains H28R substitution)”, the “total SOD activity, 3D-BCG (ΔE54 SodA mutant put into DD-BCG) versus DD-BCG” value was “FIG. 16; 16-fold reduction” and the “total SOD activity, ΔE54 SodA mutant in BCG or SIG-BCG” value is reported as “FIGS. 4, 14; 2- to 4-fold reduction”.

The record behind these values is patent US20110243992.
